In the supplement of paper PMC11246515:
± gives the standard deviation of the averaged measurements.

Test: total protein half-life in vivo (active degradation + dilution); higher = more stable protein
[1] = E. coli NCM3722 delta-clpP delta-lon delta-hslV, growth: N-lim chemostat, doubling time 6 h
[2] = E. coli NCM3722 delta-clpP, growth: N-lim chemostat, doubling time 6 h
[3] = E. coli NCM3722 delta-hslV, growth: N-lim chemostat, doubling time 6 h
[4] = E. coli NCM3722 delta-lon, growth: N-lim chemostat, doubling time 6 h
[5] = E. coli NCM3722 delta-smpB, growth: N-lim chemostat, doubling time 6 h
[6] = wild type E. coli NCM3722, growth: C-lim chemostat, doubling time 3 h
[7] = wild type E. coli NCM3722, growth: C-lim chemostat, doubling time 6 h
[8] = wild type E. coli NCM3722, growth: C-lim chemostat, doubling time 12 h
[9] = wild type E. coli NCM3722, growth: N-lim chemostat, doubling time 6 h
[10] = wild type E. coli NCM3722, growth: N-lim chemostat, doubling time 12 h
[11] = wild type E. coli NCM3722, growth: P-lim chemostat, doubling time 6 h
[12] = wild type E. coli NCM3722, growth: P-lim chemostat, doubling time 12 h

Sequence | total protein half-life in vivo [1] [h] | total protein half-life in vivo [2] [h] | total protein half-life in vivo [3] [h] | total protein half-life in vivo [4] [h] | total protein half-life in vivo [5] [h] | total protein half-life in vivo [6] [h] | total protein half-life in vivo [7] [h] | total protein half-life in vivo [8] [h] | total protein half-life in vivo [9] [h] | total protein half-life in vivo [10] [h] | total protein half-life in vivo [11] [h] | total protein half-life in vivo [12] [h]
MAINNTGSRRLLVTLTALFAALCGLYLLIGGGWLVAIGGSWYYPIAGLVMLGVAWMLWRSKRAALWLYAALLLGTMIWGVWEVGFDFWALTPRSDILVFFGIWLILPFVWRRLVIPASGAVAALVVALLISGGILTWAGFNDPQEINGTLSADATPAEAISPVADQDWPAYGRNQEGQRFSPLKQINADNVHNLKEAWVFRTGDVKQPNDPGEITNEVTPIKVGDTLYLCTAHQRLFALDAASGKEKWHYDPELKTNESFQHVTCRGVSYHEAKAETASPEVMADCPRRIILPVNDGRLIAINAENGKLCETFANKGVLNLQSNMPDTKPGLYEPTSPPIITDKTIVMAGSVTDNFSTRETSGVIRGFDVNTGELLWAFDPGAKDPNAIPSDEHTFTFNSPNSWAPAAYDAKLDLVYLPMGVTTPDIWGGNRTPEQERYASSILALNATTGKLAWSYQTVHHDLWDMDLPAQPTLADITVNGQKVPVIYAPAKTGNIFVLDRRNGELVVPAPEKPVPQGAAKGDYVTPTQPFSELSFRPTKDLSGADMWGATMFDQLVCRVMFHQMRYEGIFTPPSEQGTLVFPGNLGMFEWGGISVDPNREVAIANPMALPFVSKLIPRGPGNPMEQPKDAKGTGTESGIQPQYGVPYGVTLNPFLSPFGLPCKQPAWGYISALDLKTNEVVWKKRIGTPQDSMPFPMPVPVPFNMGMPMLGGPISTAGNVLFIAATADNYLRAYNMSNGEKLWQGRLPAGGQATPMTYEVNGKQYVVISAGGHGSFGTKMGDYIVAYALPDDVK | 6.446 ± 0.039 | 7.31 ± 0.86 | 5.96 ± 0.15 | 6.58 ± 0.58 | 6.14 ± 0.11 | 3.18 ± 0.17 | 6.44 ± 0.37 | 13.8 ± 0.65 | 6.04 ± 0.28 | 13.4 ± 0.83 | 6.54 ± 0.22 | 13.69 ± 0.084
MAIRLYKLAVALGVFIVSAPAFSHGHHSHGKPLTEVEQKAANGVFDDANVQNRTLSDWDGVWQSVYPLLQSGKLDPVFQKKADADKTKTFAEIKDYYHKGYATDIEMIGIEDGIVEFHRNNETTSCKYDYDGYKILTYKSGKKGVRYLFECKDPESKAPKYIQFSDHIIAPRKSSHFHIFMGNDSQQSLLNEMENWPTYYPYQLSSEEVVEEMMSH | 5.56 | – | 7.32 ± 0.35 | – | – | 3.24 ± 0.14 | 6.23 ± 0.17 | 12.8 ± 0.55 | – | > 16 | 5.89 ± 0.14 | –
MAISIKGVNTGVIRKSNNFIALALKIKEPRNKESLFFMSVMELRDLLIALESRLHQKHKLDAAAHLQYEQARDKVIKKMAENIPEILVDELKNADINRRVNTLELTDNQGENLTFVLTLHDGSKCELVVNELQIEMLARAIIHAINNAEMRELALRITSLLDFLPLYDVDCQDNGNLEYDTYSQPEWKHNLFDHYLAVLYRFKDESGKEQFSGAVVKTREATPGKEIEAITRRMLDFSPRLKKLAGVPCQVYVRTVAANNAQPLTQDQCLRALHHLRVQSTSKTAPQAK | 5.19 ± 0.073 | – | – | – | 2.7 ± 0.24 | 2.52 ± 0.14 | 4.83 ± 1.6 | – | – | – | – | –
MAISSRNTLLAALAFIAFQAQAVNVTVAYQTSAEPAKVAQADNTFAKESGATVDWRKFDSGASIVRALASGDVQIGNLGSSPLAVAASQQVPIEVFLLASKLGNSEALVVKKTISKPEDLIGKRIAVPFISTTHYSLLAALKHWGIKPGQVEIVNLQPPAIIAAWQRGDIDGAYVWAPAVNALEKDGKVLTDSEQVGQWGAPTLDVWVVRKDFAEKHPEVVKAFAKSAIDAQQPYIANPDVWLKQPENISKLARLSGVPEGDVPGLVKGNTYLTPQQQTAELTGPVNKAIIDTAQFLKEQGKVPAVANDYSQYVTSRFVQ | 4.13 ± 0.43 | 4.56 ± 0.22 | 5.96 ± 0.29 | 5.56 ± 0.55 | – | 2.98 ± 0.11 | 5.75 ± 1.8 | 13.2 ± 2.6 | 5.5 ± 0.39 | 12.4 ± 0.93 | 6.77 ± 1.1 | 11 ± 0.14
MAISTPMLVTFCVYIFGMILIGFIAWRSTKNFDDYILGGRSLGPFVTALSAGASDMSGWLLMGLPGAVFLSGISESWIAIGLTLGAWINWKLVAGRLRVHTEYNNNALTLPDYFTGRFEDKSRILRIISALVILLFFTIYCASGIVAGARLFESTFGMSYETALWAGAAATILYTFIGGFLAVSWTDTVQASLMIFALILTPVIVIISVGGFGDSLEVIKQKSIENVDMLKGLNFVAIISLMGWGLGYFGQPHILARFMAADSHHSIVHARRISMTWMILCLAGAVAVGFFGIAYFNDHPALAGAVNQNAERVFIELAQILFNPWIAGILLSAILAAVMSTLSCQLLVCSSAITEDLYKAFLRKHASQKELVWVGRVMVLVVALVAIALAANPENRVLGLVSYAWAGFGAAFGPVVLFSVMWSRMTRNGALAGMIIGALTVIVWKQFGWLGLYEIIPGFIFGSIGIVVFSLLGKAPSAAMQKRFAEADAHYHSAPPSRLQES | 5.44 ± 0.019 | 4.61 ± 0.21 | 4.68 ± 0.42 | 4.66 | 4.592 ± 0.044 | 3.51 ± 0.45 | 5.52 ± 0.072 | 9.72 ± 1.1 | – | 7.25 ± 1.6 | 5.18 ± 0.42 | 10.6 ± 0.28
MAKHLFTSESVSEGHPDKIADQISDAVLDAILEQDPKARVACETYVKTGMVLVGGEITTSAWVDIEEITRNTVREIGYVHSDMGFDANSCAVLSAIGKQSPDINQGVDRADPLEQGAGDQGLMFGYATNETDVLMPAPITYAHRLVQRQAEVRKNGTLPWLRPDAKSQVTFQYDDGKIVGIDAVVLSTQHSEEIDQKSLQEAVMEEIIKPILPAEWLTSATKFFINPTGRFVIGGPMGDCGLTGRKIIVDTYGGMARHGGGAFSGKDPSKVDRSAAYAARYVAKNIVAAGLADRCEIQVSYAIGVAEPTSIMVETFGTEKVPSEQLTLLVREFFDLRPYGLIQMLDLLHPIYKETAAYGHFGREHFPWEKTDKAQLLRDAAGLK [P0A817] | 2.78 ± 0.62 | 2.16 ± 0.45 | 2.01 ± 0.14 | 2.41 ± 0.18 | 2.15 ± 0.17 | 2.97 ± 0.16 | 4.63 ± 0.68 | 6.86 ± 0.4 | 2.1 ± 0.1 | 2.72 ± 0.053 | 5.17 ± 0.096 | 9.5 ± 0.32
MAKNIQAIRGMNDYLPGETAIWQRIEGTLKNVLGSYGYSEIRLPIVEQTPLFKRAIGEVTDVVEKEMYTFEDRNGDSLTLRPEGTAGCVRAGIEHGLLYNQEQRLWYIGPMFRHERPQKGRYRQFHQLGCEVFGLQGPDIDAELIMLTARWWRALGISEHVTLELNSIGSLEARANYRDALVAFLEQHKEKLDEDCKRRMYTNPLRVLDSKNPEVQALLNDAPALGDYLDEESREHFAGLCKLLESAGIAYTVNQRLVRGLDYYNRTVFEWVTNSLGSQGTVCAGGRYDGLVEQLGGRATPAVGFAMGLERLVLLVQAVNPEFKADPVVDIYLVASGADTQSAAMALAERLRDELPGVKLMTNHGGGNFKKQFARADKWGARVAVVLGESEVANGTAVVKDLRSGEQTAVAQDSVAAHLRTLLG | 5.71 ± 1.3 | 5.11 ± 0.23 | 5.44 ± 0.23 | 5.45 ± 0.52 | 4.85 ± 0.12 | 3.17 ± 0.23 | 6.14 ± 0.2 | 10.5 ± 0.68 | 4.8 ± 0.22 | 9.1857 ± 0.0011 | 5.98 ± 0.1 | 13.7 ± 0.34
